Target: Fluorescein-labeled CD4 tail peptide (residue 403-419)
Assay: other fluorescence titration; 1.0 uM fluorescein-labeled CD4 tail peptide in PBS, stirred cuvette, 25 C, 30 min incubation with Nef-His proteins at 0.01 to 10 uM in 0.5 ml; quenching of emission (excitation 492 nm, emission 516 nm) as percent reduction, average of three measurements

Substance | percent quench of the peptide's fluorescence at 10 uM Nef-His [%]
TPCK-treated Nef (C55/A)-His (natural protein) | 9.8
Nef (C55/A)-His, untreated (natural protein) | 10.6
TPCK-modified Nef-His (natural protein) | 4.9
Nef (wt)-His, unmodified (natural protein) | 11.6

— PMC2917394
